These results are taken from paper PMC4989518, “In situ expression of (R)-carbonyl reductase rebalancing an asymmetric pathway improves stereoconversion efficiency of racemic mixture to (S)-phenyl-1,2-ethanediol in Candida parapsilosis CCTCC M203011” (Microbial Cell Factories, 2016).

The data set concerns OC[C@H](O)c1ccccc1. Briefly: purified protein. The settings on record: oxidation to 2-HAP, NAD+, 100 mM acetate pH 6.5, 35 °C, enzyme from C. parapsilosis/pCP-rcr.

The Km is the substrate concentration at which the rate is half of its maximum. A word on the kcat: it is the number of substrate molecules converted per active site and unit of time at saturation. As a reminder, the kcat/Km is the second-order rate constant that governs catalysis at low substrate concentration.

As to “recombinant RCR (C. parapsilosis/pCP-rcr) (Lodderomyces parapsilosis)”, the Km turned out to be 6.31 ± 0.09 mM, the kcat was determined as 3.19 ± 0.22 s⁻¹ and the kcat/Km worked out at 510 M⁻¹ s⁻¹.
